Measured values reported in paper PMC4277400.

Molecular target: H1-HFBI: hemagglutinin ectodomain of influenza A/Texas/05/2009 (H1N1) fused to hydrophobin I (Influenza A/Texas/05/2009 (H1N1) virus | Trichoderma reesei) (UniProt P52754)
Experiment: SEC

## H1-HFBI: hemagglutinin ectodomain of influenza A/Texas/05/2009 (H1N1) fused to hydrophobin I (from UniProt P52754 23-97)
  ratio of HMWO/monomer: 2
